Assay results taken from IntAct's records for PubMed 9804817.

B1: Tyrosine-protein phosphatase non-receptor type 18 (Mus musculus), Q61152 (parent)
chain: MSRHTDLVRSFLEQLEARDYREGAILAREFSDIKARSVAWKSEGVCSTKAGSRLGNTNKNRYKDVVAYDETRVILSLLQEEGHGDYINANFIRGIDGSQAYIATQGPLPHTLLDFWRLVWEFGVKVILMACQETENGRRKCERYWAREQEPLKAGPFCITLTKETTLNADITLRTLQVTFQKEFRSVHQLQYMSWPDHGVPSSSDHILTMVEEARCLQGLGPGPLCVHCSAGCGRTGVLCAVDYVRQLLLTQTIPPNFSLFQVVLEMRKQRPAAVQTEEQYRFLYHTVAQLFSRTLQDTSPHYQNLKENCAPICKEAFSLRTSSALPATSRPPGGVLRSISVPAPPTLPMADTYAVVQKRGASAGTGPGPRAPTSTDTPIYSQVAPRAQRPVAHTEDAQGTTALRRVPADQNSSGPDAYEEVTDGAQTGGLGFNLRIGRPKGPRDPPAEWTRV
partner: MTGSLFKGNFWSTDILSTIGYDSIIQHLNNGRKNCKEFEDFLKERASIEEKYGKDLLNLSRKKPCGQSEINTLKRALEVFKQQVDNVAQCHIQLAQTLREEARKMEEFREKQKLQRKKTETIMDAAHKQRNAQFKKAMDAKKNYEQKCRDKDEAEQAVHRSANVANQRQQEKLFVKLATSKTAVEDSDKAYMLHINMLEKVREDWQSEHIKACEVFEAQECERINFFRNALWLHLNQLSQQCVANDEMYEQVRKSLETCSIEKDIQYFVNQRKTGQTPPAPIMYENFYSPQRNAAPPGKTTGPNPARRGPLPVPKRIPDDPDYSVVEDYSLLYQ
B2: Proline-serine-threonine phosphatase-interacting protein 1 (Mus musculus), P97814 (parent)
chain: MMAQLQFRDAFWCRDFTAHTGYEVLLQRLLDGRKMCKDVEELLRQRAQAEERYGKELVQIARKAGGQTEMNSLRTSFDSLKQQTENVGSAHIQLALALREELRSLEEFRERQKEQRKKYEAIMDRVQKSKLSLYKKTMESKKAYDQKCRDADDAEQAFERVSANGHQKQVEKSQNKAKQCKESATEAERVYRQNIEQLERARTEWEQEHRTTCEAFQLQEFDRLTILRNALWVHCNQLSMQCVKDDELYEEVRLTLEGCDVEGDINGFIQSKSTGREPPAPVPYQNYYDREVTPLIGSPSIQPSCGVIKRFSGLLHGSPKTTPSAPAASTETLTPTPERNELVYASIEVQATQGNLNSSAQDYRALYDYTAQNSDELDISAGDILAVILEGEDGWWTVERNGQRGFVPGSYLEKL
partner: B1 chain
B3: Proline-serine-threonine phosphatase-interacting protein 2 (Mus musculus), Q99M15 (parent)
chain: B1 partner
partner: B1 chain
B4: Tyrosine-protein phosphatase non-receptor type 18 (Mus musculus), Q61152 (parent)
chain: B1 chain

Variants of: B1
Details: with ppip2_mouse Pstpip2, Q99M15

Variant	effect of a mutation on the interaction
MSRHTDLVRSFLEQLEARDYREGAILAREFSDIKARSVAWKSEGVCSTKAGSRLGNTNKNRYKDVVAYDETRVILSLLQEEGHGDYINANFIRGIDGSQAYIATQGPLPHTLLDFWRLVWEFGVKVILMACQETENGRRKCERYWAREQEPLKAGPFCITLTKETTLNADITLRTLQVTFQKEFRSVHQLQYMSWPDHGVPSSSDHILTMVEEARCLQGLGPGPLCVHCSAGCGRTGVLCAVDYVRQLLLTQTIPPNFSLFQVVLEMRKQRPAAVQTEEQYRFLYHTVAQLFSRTLQDTSPHYQNLKENCAPICKEAFSLRTSSALPATSRPPGGVLRSISVPAPPTLPMADTYAVVQKRGASAGTGPGPRAPTSTDTPIYSQVAPRAQRPVAHTEDAQGTTALRRVPADQNSSGPDAYEEVTDGAQTGGLGFNLRIGRPKGPRDPPAEATRV [W450A]	decreasing interaction

Variants of: B1
Details: with ppip2_mouse Pstpip2, Q99M15
Remark: another data set of the same source

Variant	effect of a mutation on the interaction
MSRHTDLVRSFLEQLEARDYREGAILAREFSDIKARSVAWKSEGVCSTKAGSRLGNTNKNRYKDVVAYDETRVILSLLQEEGHGDYINANFIRGIDGSQAYIATQGPLPHTLLDFWRLVWEFGVKVILMACQETENGRRKCERYWAREQEPLKAGPFCITLTKETTLNADITLRTLQVTFQKEFRSVHQLQYMSWPDHGVPSSSDHILTMVEEARCLQGLGPGPLCVHCSAGCGRTGVLCAVDYVRQLLLTQTIPPNFSLFQVVLEMRKQRPAAVQTEEQYRFLYHTVAQLFSRTLQDTSPHYQNLKENCAPICKEAFSLRTSSALPATSRPPGGVLRSISVPAPPTLPMADTYAVVQKRGASAGTGPGPRAPTSTDTPIYSQVAPRAQRPVAHTEDAQGTTALRRVPADQNSSGPDAYEEVTDGAQTGGLGFNLRIGRPKGPADPPAEWTRV [R444A]	decreasing interaction

Variants of: B2
Details: with ptn18_mouse Ptpn18, Q61152

Variant	effect of a mutation on the interaction
W232A	disrupting interaction

Variants of: B3
Details: with ptn18_mouse Ptpn18, Q61152

Variant	effect of a mutation on the interaction
MTGSLFKGNFWSTDILSTIGYDSIIQHLNNGRKNCKEFEDFLKERASIEEKYGKDLLNLSRKKPCGQSEINTLKRALEVFKQQVDNVAQCHIQLAQTLREEARKMEEFREKQKLQRKKTETIMDAAHKQRNAQFKKAMDAKKNYEQKCRDKDEAEQAVHRSANVANQRQQEKLFVKLATSKTAVEDSDKAYMLHINMLEKVREDWQSEHIKACEVFEAQECERINFFRNALALHLNQLSQQCVANDEMYEQVRKSLETCSIEKDIQYFVNQRKTGQTPPAPIMYENFYSPQRNAAPPGKTTGPNPARRGPLPVPKRIPDDPDYSVVEDYSLLYQ [W232A]	disrupting interaction

Variants of: B4
Details: with ppip1_mouse Pstpip1, P97814

Variant	effect of a mutation on the interaction
MSRHTDLVRSFLEQLEARDYREGAILAREFSDIKARSVAWKSEGVCSTKAGSRLGNTNKNRYKDVVAYDETRVILSLLQEEGHGDYINANFIRGIDGSQAYIATQGPLPHTLLDFWRLVWEFGVKVILMACQETENGRRKCERYWAREQEPLKAGPFCITLTKETTLNADITLRTLQVTFQKEFRSVHQLQYMSWPDHGVPSSSDHILTMVEEARCLQGLGPGPLCVHCSAGCGRTGVLCAVDYVRQLLLTQTIPPNFSLFQVVLEMRKQRPAAVQTEEQYRFLYHTVAQLFSRTLQDTSPHYQNLKENCAPICKEAFSLRTSSALPATSRPPGGVLRSISVPAPPTLPMADTYAVVQKRGASAGTGPGPRAPTSTDTPIYSQVAPRAQRPVAHTEDAQGTTALRRVPADQNSSGPDAYEEVTDGAQTGGLGFNLRIGRPKGPADPPAEWTRV [R444A]	decreasing interaction

Variants of: B4
Details: with ppip1_mouse Pstpip1, P97814
Remark: another data set of the same source

Variant	effect of a mutation on the interaction
MSRHTDLVRSFLEQLEARDYREGAILAREFSDIKARSVAWKSEGVCSTKAGSRLGNTNKNRYKDVVAYDETRVILSLLQEEGHGDYINANFIRGIDGSQAYIATQGPLPHTLLDFWRLVWEFGVKVILMACQETENGRRKCERYWAREQEPLKAGPFCITLTKETTLNADITLRTLQVTFQKEFRSVHQLQYMSWPDHGVPSSSDHILTMVEEARCLQGLGPGPLCVHCSAGCGRTGVLCAVDYVRQLLLTQTIPPNFSLFQVVLEMRKQRPAAVQTEEQYRFLYHTVAQLFSRTLQDTSPHYQNLKENCAPICKEAFSLRTSSALPATSRPPGGVLRSISVPAPPTLPMADTYAVVQKRGASAGTGPGPRAPTSTDTPIYSQVAPRAQRPVAHTEDAQGTTALRRVPADQNSSGPDAYEEVTDGAQTGGLGFNLRIGRPKGPRDPPAEATRV [W450A]	decreasing interaction
